Assay results: publication PMC10720262 (Cell Reports, 2023)

B1: CL-511073 (antibody, V domains shown)
VH: QVQLVESGGGVVQPGRSLRLSCAASGFSFSSHGMHWVRQAPGKGLEWVSIIWYDGSNKFYADSVKGRFTISRDNSKNTLYLQMNSLRAEDTAVYYCARDGYDVLTGHYNWFDPWGQGTLVTVSS
VL: EIVMTQSPATLSVSPGERATLSCRASQSVSSKLAWYQQKPGQAPRLLIYGASTRATGIPARFSGSGSGTDFTLTISSLQSEDFAVYYCQQYNNWWTFGHGTKVEIK
B2: CL-510640 (antibody, V domains shown)
VH: QVQLVESGGGVVQPGRSLRLSCAASGFTFSNYGMHWVRQAPVKGLEWVAIIWYDGSNKFYADSVRGRFIISRDNSKNTLYLQMNSLRAEDTAVYFCARAREGQNSDYYGSETSYTFDSWGLGTLVTVSS
VL: DIQMTQSPSTLSASVGDRVTITCRASQSISSWLAWYQQKPGKAPKFLIYKASSLESGVPSRFSGSGSGTEFTLTISSLQPDDFATYYCQQYKSYWTFGQGTKVEIK
B3: CL-512275 (antibody, V domains shown)
VH: QVQLVESGGGVVQPGGSFRLSCETSGFTFSNFGMHWVRQAPGKGLEWVALIWYDGSHKFYADSLTGRFTISRDNSKNTLYLQMNSLRVEDTAVYYCARAHSVTTANDKYGTDVWGQGTTVTVSP
VL: DIQMTQSPSTLSASVGDRVTITCRASQSISSWLAWYQHKPGRAPKLLIYKASSLESGIPSRFSGSGSGTEFTLTISSLQPDDFATYFCQQYNSYWTFGQGTKVEIK
B4: CL-512264 (antibody, V domains shown)
VH: QVQLVESGGGVVQPGRSLRLSCVTSGFTFSNFGMHWVRQAPGKGLEWVAIIWYDGSNKFYADSLKGRFTISRDNSKNTLFLQMNSLRAEDTAVYYCARAHTVTTANDKYGTDVWGQGTTVTVSS
VL: DIQMTQSPSTLSASVGDRVTITCRASQSISSWLAWYQHKPGKAPKLLIYKASSLESGVPSRFSGSGSGTEFTLTISSLQPDDFATYFCQQYNSYWTFGQGTKVEIK
B5: CL-512011 (antibody, V domains shown)
VH: QVQLVESGGGVVQPGRSLRLSCVTSGFTFSSFGMHWVRQAPGKGLEWVALIWYDGSHKFYADSLTGRFTISRDNSKNTLYLQMNSLRVEDTAVYYCARAHAVTTANDKYGTDVWGQGTTVNVSP
VL: DIQMTQSPSTLSASVGDRVTITCRASQSISSWLAWYQHKPGNAPKLLIYKASNLESGVPSRFSGSGSGTEFTLTISSLQPDDFATYFCQQYNSYWTFGQGTKVEVK
B6: CL-511862 (antibody, V domains shown)
VH: QVQLVESGGGVVQPGKSLRLSCAASGFSFSSSGMHWVRQAPDKGLEWVAIIWYDGSHKFYADSVKGRFTISRDNSDNTLFLQMDSLRAEDTAVYYCVRAYPTSYNGNYDKYGMDVWGQGTTVTVSS
VL: DIQMTQSPSTLSASVGDRVTIACRASQSISTWLAWYQQKPGKAPKLLIYKASTLESGVPSRFSGSGSGTEFTLTISSLQPDDFATYYCQQFTFYWTFGQGTKVEIK
B7: CL-510700 (antibody, V domains shown)
VH: QVQLVESGGGVVQPGRSLRLSCAASGFTFSDFGMHWVRQTPGKGLEWVAIIWYDGSNKFYADSVKGRFTISRDNSKNTLFLQMNSLRAEDTAVYYCARSGVYYGSGSHFDYWGQGTLVTVSS
VL: DIQMTQSPSTLSASVGDRVTITCRASQSISSWLAWYQLKPGKAPKLLIYKASNLETGVPLRFSGSGSGTEFTLTISSLQPDDFATYYCQQYNSYLTFGQGTKVEIK
B8: CL-511296 (antibody, V domains shown)
VH: QVQLVASGGGVVQPGRSQRLSCAASGFTFSNYGMHWVRQSPGRGLEWVAIIWYDGSNKFYADSVKGRFTISRDNSRNTLFLQMNSLRAEDTAIYYCAKSEERTSDNYFKYGMDVWGQGTTVIVST
VL: DIQMTQSPSTLSASVGDRVTITCRASQSISSWLAWYQQKPGKAPKLLIYKASNLESGVPSRFSGSGSGTEFTLSISNLQPDDFATYFCQQYTSYWTFGQGTKVEIK
B9: CL-511026 (antibody, V domains shown)
VH: QVQLVESGGGVVQPGRSLRLSCAASGFTFSNFGMHWVRQAPDRGLEWVSIIWYDGSNKFYADSVKGRFTISRDNSKNTLFLQMDSLRAEDTAVYYCAKAEMRTSDYYNYGMDVWGQGTTVTVSS
VL: DIQMTQSPSTLSASVGDRVTITCRASQSISSWLAWYQQKPGKAPKLLIYKASSLESGVPSRFSGSGSATEFTLTIRSLQPDDFATYYCQQYYSYWTFGQGTKVEIN
B10: CL-511776 (antibody, V domains shown)
VH: QVQLVESGGGVVQPGRSLTLSCAASGFTFSNFGMHWVRQAPGKGLEWMAVIWYDGNNEFYADSVKGRFTISRDNSKNMLYLHMNSLRAEDTAIYYCAREGDYSASGSHWLFDPWGQGTQVTVSS
VL: DIQMTQSPSTLSASVGDSITITCRASQSINIWLAWYQQKPGKAPNLLIYKASSLESGVPSRFSGSGSGTEFTLTINSLQPDDFATYYCQQYNNYVTFGGGTKVEIK
B11: CL-511771 (antibody, V domains shown)
VH: QVQLVESGGGVVQPGRSLRLSCAASGFTFSNSGMHWVRQAPGKGLEWVAIIWYDGSNKYYAESMKGRFTISRDNSKNTLYLQMNSLRAEDTAVYYCARDGTTNAFDLWGQGTMVTVSP
VL: not shown
B12: CL-512206 (antibody, V domains shown)
VH: QVQLVESGGGVVQPGRSLRLSCAASGFTFSHYGMHWVRQAPGKGLEWVAVIWYDGNNKFYADSVKGRFTISRDNSNNTLYLQMNSLRAEDTAVYHCVRERTGATSRGFDFWGQGTLVTVSS
VL: QSVLTQPPSVSAAPGQKVTISCSGSDSNIEKYYVSWYQQLPGSAPKLLIYDNNKRPSGIPDRFSGSKSGTSATLGITGLQTGDEAVYYCGTWDSSLSTGVFGGGTKLTVL
B13: CL-512191 (antibody, V domains shown)
VH: QVQLVESGGGVVQPGRSLRLSCAASGFTFSNYAMHWVRQAPGKGLEWVAVIWYDGSNKYYADSVKGRFTISRDDSKNTLYLQMNSLRAEDTAVYYCARDKGYRYGFNWFDPWGQGTLVTVSS
VL: QSVLTQPPSVSGAPGQRVTISCTGSSSNIGAGYDVHWYQKLPGTAPKLLIFSNSNRPSGVPDRFSGSKSGTSASLAITGLQAEDEADYYCQSYDSSLSGSRVFGGGTKLTVL
B14: CL-511905 (antibody, V domains shown)
VH: QVQLVESGGGVVQPGRSLRLSCAASGFTFSGSGMHWVRQAPGRGLEWVAIIWYDGSHKYYVDSVQGRFIISRDNSKNTLYLEMNSLRVEDTAVYYCVRAYPSGSSNDKYGMDVWGQGTTVTVSS
VL: not shown
B15: CL-512023 (antibody, V domains shown)
VH: QVQLMESGGGVVQPGRSLRLSCEASGFTFSNSGMHWVRQAPGKGLEWVAIIWYDGSNRYYVDSVKGRFTISRDNSKNTLYLQMNSLRAEDTAVYYCARDGGNRYGYGWFDSWGQGTLVTVSS
VL: QSVLTQPPSVSGAPGQRVTISCTGSSSNIGAGYDVHWYQQLPGTAPKLLIYGNTNRPSGVPDRFSGSKSGTSASLAITGLQAEDEADYYCQSYDSSLGGSRRVFGGGTKLTVL
B16: CL-512296 (antibody, V domains shown)
VH: QVQLVESGGGVVQPGRSLRLSCAASGFTFSNYGMHWVRQAPGKGLEWVAVIWYDGSKKFYADSVMGRFTISRDNSKNTLVLQMNSLGAEDTAVYYCARDRGYSGYVFDYWGQGTLVTVSS
VL: QSALTQPASVSGSPGQSIAISCTGTSSDVGGYNFVSWYRHHPGKAPKLMIYDVSNRPSGVSNRFSGSKSGNTASLTISGLQAEDEADYYCCSYAGSCSVFGGGTKLTVL

Target: recombinant full-length PfCSP (Plasmodium falciparum circumsporozoite protein, strain NF54) (Plasmodium falciparum NF54, UniProt P19597)
Sequence (P19597 20-375): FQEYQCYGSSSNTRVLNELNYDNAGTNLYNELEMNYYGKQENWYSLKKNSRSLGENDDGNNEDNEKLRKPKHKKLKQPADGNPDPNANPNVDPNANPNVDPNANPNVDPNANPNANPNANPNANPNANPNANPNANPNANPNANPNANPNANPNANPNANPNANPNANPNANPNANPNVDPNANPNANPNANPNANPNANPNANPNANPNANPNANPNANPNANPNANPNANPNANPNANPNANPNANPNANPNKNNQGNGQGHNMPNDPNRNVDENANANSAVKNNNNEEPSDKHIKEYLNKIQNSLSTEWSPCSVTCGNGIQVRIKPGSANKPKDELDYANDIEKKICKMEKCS

Binding result, binds:
B1, B2, B3, B4, B5, B6, B7, B8, B9, B10, B11, B12, B13, B14, B15, B16
